Assay results as given in patent US20020165132A1.
Positions of bridges follow the written chain, without caps; N, C: chain ends. Non-standard residues stand in square brackets, D forms with d. No end group written: not given here. AlaL = alanine half of a lanthionine (monosulfide) bridge; Thr(ol) = C[C@@H](O)[C@H](N)CO; dValL = not defined here

B1: Tyr-c[D-AlaL-Gly-Phe-L-AlaL]-NH2 (peptide)
peptide: Y[dAlaL]GF[AlaL]-NH2
modifications: bridge 2-5; not fully specified (bridges); printed as Tyr-c[D-AlaL-Gly-Phe-L-AlaL]-NH2
B2: Tyr-c[D-AlaL-Gly-Phe-L-AlaL]-OH (peptide)
peptide: Y[dAlaL]GF[AlaL]-OH
modifications: bridge 2-5; not fully specified (bridges); printed as Tyr-c[D-AlaL-Gly-Phe-L-AlaL]-OH
B3: Tyr-c[D-ValL-Gly-Phe-L-AlaL]-OMe (peptide)
peptide: Y[dValL]GF[AlaL]-OMe
modifications: thioether 2-5; reading uncertain; also: printed as Tyr-c[D-ValL-Gly-Phe-L-AlaL]-OMe
B4: Tyr-c[D-ValL-Gly-Phe-L-AlaL]-OH (peptide)
peptide: Y[dValL]GF[AlaL]-OH
modifications: thioether 2-5; reading uncertain; also: printed as Tyr-c[D-ValL-Gly-Phe-L-AlaL]-OH
B5: Tyr-c[D-ValL-Gly-Phe-D-AlaL]-OH (peptide)
peptide: Y[dValL]GF[dAlaL]-OH
modifications: thioether 2-5; reading uncertain; also: printed as Tyr-c[D-ValL-Gly-Phe-D-AlaL]-OH

The binders below were run against SSTR4 Receptor (cloned somatostatin receptor) (assay: inhibition of radioligand binding to cloned SSTR4).
Chain of SSTR4 Receptor (cloned somatostatin receptor) (P30938 whole entry): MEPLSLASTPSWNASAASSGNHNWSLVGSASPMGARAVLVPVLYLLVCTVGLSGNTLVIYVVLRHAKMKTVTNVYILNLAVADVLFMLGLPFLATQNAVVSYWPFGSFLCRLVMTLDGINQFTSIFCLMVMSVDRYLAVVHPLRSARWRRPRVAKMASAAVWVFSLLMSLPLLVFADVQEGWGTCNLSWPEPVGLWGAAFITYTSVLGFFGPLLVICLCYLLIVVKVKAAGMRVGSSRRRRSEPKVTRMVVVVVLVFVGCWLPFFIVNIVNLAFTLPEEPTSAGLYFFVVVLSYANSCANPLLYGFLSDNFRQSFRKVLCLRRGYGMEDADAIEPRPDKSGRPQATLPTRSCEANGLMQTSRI

Q: AGCKNFFWKTFTSC (peptide, UniProt P61278 103-116, looked up, disulfide 3-14 (inferred)) [Somatostatin-14] was tested. Which IC50 did it give?
A: The IC50 was 0.86 nM.

Q: With H-[dF][AlaL]F[dW]KT[AlaL]T-NH2 (thioether 2-7) [H-D-Phe-c[AlaLPhe-D-Trp-Lys-Thr-AlaL]-Thr-NH2] as the binder, how does the IC50 read?
A: The IC50 was 0.5 nM.

Q: With H-[dF][AlaL]F[dW]KT[AlaL][Thr(ol)] (thioether 2-7) [H-D-Phe-c[AlaLPhe-D-Trp-Lys-Thr-AlaL]-Thr-ol] as the binder, how does the IC50 read?
A: Its IC50 is 1 nM.

Q: H-[dF][AlaL]F[dW]KT[AlaL]-OH (thioether 2-7) [H-D-Phe-c[AlaLPhe-D-Trp-Lys-Thr-AlaL]-OH] was tested. Which IC50 did it give?
A: The IC50 was 500 nM.

The binders below were run against δ-receptor (mouse vas deferens preparation) (mouse), P32300 (assay: cell-based or functional assay).
Chain of δ-receptor (mouse vas deferens preparation) (mouse), P32300 (P32300 whole entry, stated change not applied): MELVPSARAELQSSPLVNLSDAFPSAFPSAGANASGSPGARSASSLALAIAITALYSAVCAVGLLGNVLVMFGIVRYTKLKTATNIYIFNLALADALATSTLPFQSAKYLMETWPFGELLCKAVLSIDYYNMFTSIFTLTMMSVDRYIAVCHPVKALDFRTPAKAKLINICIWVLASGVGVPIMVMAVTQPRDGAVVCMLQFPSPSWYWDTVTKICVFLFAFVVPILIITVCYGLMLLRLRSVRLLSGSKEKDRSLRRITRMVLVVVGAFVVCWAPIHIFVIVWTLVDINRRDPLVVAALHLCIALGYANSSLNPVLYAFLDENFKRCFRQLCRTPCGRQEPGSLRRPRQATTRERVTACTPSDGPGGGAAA

Q: For B1, which MVD IC50 is on record?
A: The MVD IC50 was 0.54 nM.

Q: With B2 as the binder, how does the MVD IC50 read?
A: Its MVD IC50 is 0.16 nM.

Each binder was assayed against SSTR2 Receptor (cloned somatostatin receptor) (assay: inhibition of radioligand binding to cloned SSTR2).
Chain of SSTR2 Receptor (cloned somatostatin receptor) (P30875 whole entry): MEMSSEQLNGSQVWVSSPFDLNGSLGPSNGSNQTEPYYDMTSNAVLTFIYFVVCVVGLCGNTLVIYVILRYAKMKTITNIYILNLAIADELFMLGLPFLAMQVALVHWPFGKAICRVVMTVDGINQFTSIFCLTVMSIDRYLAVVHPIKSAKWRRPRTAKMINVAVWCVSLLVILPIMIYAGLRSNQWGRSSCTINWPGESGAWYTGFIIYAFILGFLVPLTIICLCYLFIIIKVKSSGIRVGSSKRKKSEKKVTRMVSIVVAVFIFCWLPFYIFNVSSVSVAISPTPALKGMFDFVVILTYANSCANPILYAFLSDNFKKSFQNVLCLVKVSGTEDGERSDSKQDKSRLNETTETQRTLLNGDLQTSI

Q: With AGCKNFFWKTFTSC (peptide, UniProt P61278 103-116, looked up, disulfide 3-14 (inferred)) [Somatostatin-14] as the binder, how does the IC50 read?
A: The IC50 was 0.28 nM.

Q: Which IC50 does the source give for [dF]CF[dW]KTC[Thr(ol)] (disulfide 2-7) [Sandostatin] here?
A: Its IC50 is 2.4 nM.

Q: With H-[dF][AlaL]F[dW]KT[AlaL]T-NH2 (thioether 2-7) [H-D-Phe-c[AlaLPhe-D-Trp-Lys-Thr-AlaL]-Thr-NH2] as the binder, how does the IC50 read?
A: The IC50 was 10 nM.

Q: For H-[dF][AlaL]F[dW]KT[AlaL][Thr(ol)] (thioether 2-7) [H-D-Phe-c[AlaLPhe-D-Trp-Lys-Thr-AlaL]-Thr-ol], which IC50 is on record?
A: The IC50 was 5 nM.

Each binder was assayed against µ-receptor (guinea pig ileum preparation) (guinea pig) (assay: cell-based or functional assay).

Q: How did the GPI IC50 turn out when B3 was run?
A: Its GPI IC50 is 88.1 nM.

Q: Y[dAlaL]GF[dAlaL]-NH2 (thioether 2-5) [Tyr-c[D-AlaL-Gly-Phe-D-AlaL]-NH2] was tested. Which GPI IC50 did it give?
A: Its GPI IC50 is 1.67 nM.

Q: For B4, which GPI IC50 is on record?
A: The GPI IC50 was 39 nM.

Q: B5 was tested. Which GPI IC50 did it give?
A: The GPI IC50 was 535 nM.

Each binder was assayed against δ-receptor (mouse vas deferens preparation) (mouse) (UniProt P32300) (assay: cell-based or functional assay).
Chain of δ-receptor (mouse vas deferens preparation) (mouse) (P32300 whole entry, stated change not applied): as the sequence (P32300 whole entry, stated change not applied) above

Q: For B3, which MVD IC50 is on record?
A: Its MVD IC50 is 3.65 nM.

Q: How did the MVD IC50 turn out when Y[dAlaL]GF[dAlaL]-NH2 (thioether 2-5) [Tyr-c[D-AlaL-Gly-Phe-D-AlaL]-NH2] was run?
A: The MVD IC50 was 1.67 nM.
